Experimental data from paper PMC4409310, “Substrate Recognition and Modification by the Nosiheptide Resistance Methyltransferase”.

Key:
[1] = target: His-NHR (Streptomyces actuosus, UniProt P52391 1-274); experiment: fluorescence anisotropy; 5 mM Mg2+; Anisotropy: 25 mM HEPES-KOH pH 7.5, 25 mM NH4Cl, 5 mM MgCl2, 5 mM DTT, 2.5 uM RNA, 0-8 uM NHR, temperature not stated; EMSA: 25 mM HEPES-KOH pH 8.0, 25 mM NH4Cl, 5 mM MgCl2, 5 mM DTT, 4 C, 1 h, 6-10 uM RNA; conditions: protein: recombinant, tags: N-terminal His6 (pET-28a), chain copies: 2
[2] = target: HA-His-NHR-R135A (His-NHR-M) (Streptomyces actuosus, UniProt P52391 1-274, R135A); experiment: EMSA; 5 mM Mg2+; R135A homodimer, less efficient than heterodimer; Anisotropy: 25 mM HEPES-KOH pH 7.5, 25 mM NH4Cl, 5 mM MgCl2, 5 mM DTT, 2.5 uM RNA, 0-8 uM NHR, temperature not stated; EMSA: 25 mM HEPES-KOH pH 8.0, 25 mM NH4Cl, 5 mM MgCl2, 5 mM DTT, 4 C, 1 h, 6-10 uM RNA; conditions: protein: recombinant; tags: HA, N-terminal His6; chain copies: 2; label: 3' fluorescein (anisotropy); none (EMSA, SYBR Gold); hairpin
[3] = target: HA-His-NHR-R135A subunit of heterodimer;Flag-Trx-NHR subunit of heterodimer (Streptomyces actuosus;Streptomyces …, UniProt P52391;P52391 1-274;1-274, R135A|); experiment: EMSA; 5 mM Mg2+; WT/R135A heterodimer, more efficient than R135A homodimer; Anisotropy: 25 mM HEPES-KOH pH 7.5, 25 mM NH4Cl, 5 mM MgCl2, 5 mM DTT, 2.5 uM RNA, 0-8 uM NHR, temperature not stated; EMSA: 25 mM HEPES-KOH pH 8.0, 25 mM NH4Cl, 5 mM MgCl2, 5 mM DTT, 4 C, 1 h, 6-10 uM RNA; conditions: protein: recombinant;recombinant, tags: HA, N-terminal His6;Flag, thioredoxin, copies: 1;1, label: 3' fluorescein (anisotropy), none (EMSA, SYBR Gold), hairpin
[4] = label: 3' fluorescein, folded single strand

## GGAUGUUGGCUUAGAAGCAGCCAUCAUUU (structured_RNA) [29 nt RNA wt A1067]
[1]; label: 3' fluorescein (anisotropy), none (EMSA, SYBR Gold), hairpin
  Kd: 370 ± 30 nM
[2]
  binding result: binds
[3]
  binding result: binds

B1: 58 nt RNA A1067G (structured_RNA)
RNA: GGCCAGGAUGUUGGCUUGGAAGCAGCCAUCAUUUAAAGAAAGCGUAAUAGCUCACUGGCU
[1]; [4]
  Kd: 770 ± 20 nM

B2: 58 nt RNA A1067C (structured_RNA)
RNA: GGCCAGGAUGUUGGCUUCGAAGCAGCCAUCAUUUAAAGAAAGCGUAAUAGCUCACUGGCU
[1]; [4]
  Kd: 800 ± 20 nM

B3: 58 nt RNA A1067U (structured_RNA)
RNA: GGCCAGGAUGUUGGCUUUGAAGCAGCCAUCAUUUAAAGAAAGCGUAAUAGCUCACUGGCU
[1]; [4]
  Kd: 910 ± 20 nM

## GGAUGUUGGCUUGGAAGCAGCCAUCAUUU (structured_RNA) [29 nt RNA A1067G]
[1]; label: 3' fluorescein, hairpin
  Kd: 370 ± 30 nM

## GGAUGUUGGCUUUGAAGCAGCCAUCAUUU (structured_RNA) [29 nt RNA A1067U]
[1]; label: 3' fluorescein, hairpin
  Kd: 630 ± 80 nM

## GGAUGUUGGCUUCGAAGCAGCCAUCAUUU (structured_RNA) [29 nt RNA A1067C]
[1]; label: 3' fluorescein, hairpin
  Kd: 460 ± 40 nM
